# From article PMC9482650, “Quantitative fragmentomics allow affinity mapping of interactomes” (Nature Communications, 2022)
# T1: MPP7, Q5T2T1
# T1 sequence (Q5T2T1 134-230, limits assumed, looked up): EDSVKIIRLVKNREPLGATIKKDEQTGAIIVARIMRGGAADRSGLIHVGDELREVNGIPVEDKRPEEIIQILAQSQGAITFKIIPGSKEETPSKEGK
# T2: DFNB31_2, Q9P202
# T2 sequence (Q9P202 274-371, limits assumed, looked up): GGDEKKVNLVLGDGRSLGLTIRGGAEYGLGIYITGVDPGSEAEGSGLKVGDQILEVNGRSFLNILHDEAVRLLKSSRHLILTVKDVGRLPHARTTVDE
# T3: GRIP1_4, Q9Y3R0
# T3 sequence (Q9Y3R0 467-571, limits assumed, looked up): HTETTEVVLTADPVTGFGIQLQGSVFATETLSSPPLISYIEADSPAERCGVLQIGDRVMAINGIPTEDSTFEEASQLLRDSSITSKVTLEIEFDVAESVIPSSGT
# T4: PDZD2_2, O15018
# T4 sequence (O15018 329-429, limits assumed, looked up): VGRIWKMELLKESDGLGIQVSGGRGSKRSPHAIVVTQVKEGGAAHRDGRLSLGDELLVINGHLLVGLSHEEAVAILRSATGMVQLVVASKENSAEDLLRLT
# T5: DLG3_2, Q92796
# T5 sequence (Q92796 221-321, limits assumed, looked up): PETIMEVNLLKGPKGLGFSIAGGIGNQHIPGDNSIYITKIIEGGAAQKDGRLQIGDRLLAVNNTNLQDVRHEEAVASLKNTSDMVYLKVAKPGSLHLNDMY
# T6: MPDZ_10, O75970
# T6 sequence (O75970 1624-1722, limits assumed, looked up): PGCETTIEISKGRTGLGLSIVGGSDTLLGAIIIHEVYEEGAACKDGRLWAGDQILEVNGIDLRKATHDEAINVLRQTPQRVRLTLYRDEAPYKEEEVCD
# T7: DFNB31_3, Q9P202
# T7 sequence (Q9P202 811-907, limits assumed, looked up): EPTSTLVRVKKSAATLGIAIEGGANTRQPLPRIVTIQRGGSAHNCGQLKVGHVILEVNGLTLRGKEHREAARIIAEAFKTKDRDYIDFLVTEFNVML
# T8: PDZRN3_1, Q9UPQ7
# T8 sequence (Q9UPQ7 244-349, limits assumed, looked up): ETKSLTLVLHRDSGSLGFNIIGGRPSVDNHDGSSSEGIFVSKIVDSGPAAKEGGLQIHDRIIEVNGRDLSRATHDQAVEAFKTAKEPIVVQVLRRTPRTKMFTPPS
# T9: ARHGAP21, Q5T5U3
# T9 sequence (Q5T5U3 45-169, limits assumed, looked up): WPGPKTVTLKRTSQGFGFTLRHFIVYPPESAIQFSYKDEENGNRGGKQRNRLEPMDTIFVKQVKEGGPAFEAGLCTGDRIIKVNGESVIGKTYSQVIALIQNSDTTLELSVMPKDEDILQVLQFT
# T10: MPDZ_5, O75970
# T10 sequence (O75970 695-796, limits assumed, looked up): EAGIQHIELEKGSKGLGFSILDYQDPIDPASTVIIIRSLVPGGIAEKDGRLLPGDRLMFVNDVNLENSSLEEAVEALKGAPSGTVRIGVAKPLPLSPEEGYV
# T11: MPDZ_12, O75970
# T11 sequence (O75970 1857-1958, limits assumed, looked up): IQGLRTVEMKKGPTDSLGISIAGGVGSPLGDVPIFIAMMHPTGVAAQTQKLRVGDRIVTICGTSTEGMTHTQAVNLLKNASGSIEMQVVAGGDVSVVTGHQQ
# T12: SNTA1, Q13424
# T12 sequence (Q13424 82-180, limits assumed, looked up): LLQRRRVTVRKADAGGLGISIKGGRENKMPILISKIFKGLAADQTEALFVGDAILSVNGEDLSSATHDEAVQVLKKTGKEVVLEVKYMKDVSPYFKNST
# T13: TX1BP3, O14907
# T13 sequence (O14907 10-122, limits assumed, looked up): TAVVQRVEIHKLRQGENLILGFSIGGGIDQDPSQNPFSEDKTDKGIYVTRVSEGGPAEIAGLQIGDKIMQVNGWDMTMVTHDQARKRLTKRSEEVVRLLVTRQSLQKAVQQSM
# B1: CNTNAP2, Q9UHC6 (peptide)
# chain: IDESKKEWLI
# B2: REELD1, A0A1B0GV85 (peptide)
# chain: PSVGSKKTVL
# B3: CRIPT, Q9P021 (peptide)
# chain: DTKNYKQTSV
# Molecular target: T1, MPP7, Q5T2T1
# Experiment: holdup assay
# Set-up: key: below the threshold = too weak to quantify, mostly under pKd 3.1 to 4
# Conditions: plain residues with an end cap or a label only (N-terminal biotin on a linker: ado-ado)
row,pKd,Binder
1,5.46,B1
2,below the threshold,B2
3,below the threshold,B3

# Molecular target: Inadl_3, Q8NI35
# Sequence (Q8NI35 359-469): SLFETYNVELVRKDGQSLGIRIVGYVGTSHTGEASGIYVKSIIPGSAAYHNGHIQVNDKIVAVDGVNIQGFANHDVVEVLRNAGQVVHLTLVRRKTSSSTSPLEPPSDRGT
# Experiment: holdup assay
# Set-up: key: below the threshold = too weak to quantify, mostly under pKd 3.1 to 4
# Conditions: plain residues with an end cap or a label only (N-terminal biotin on a linker: ado-ado)
row,pKd,Binder
1,5.46,B1
2,below the threshold,B2
3,below the threshold,B3

# Molecular target: HTRA1, Q92743
# Sequence (Q92743 360-477): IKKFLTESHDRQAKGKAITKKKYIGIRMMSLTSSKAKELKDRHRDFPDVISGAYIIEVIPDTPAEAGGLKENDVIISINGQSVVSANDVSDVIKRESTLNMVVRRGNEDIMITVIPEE
# Experiment: holdup assay
# Set-up: key: below the threshold = too weak to quantify, mostly under pKd 3.1 to 4
# Conditions: plain residues with an end cap or a label only (N-terminal biotin on a linker: ado-ado)
row,pKd,Binder
1,5.31,B1
2,3.55,B2
3,below the threshold,B3

# Molecular target: T2, DFNB31_2, Q9P202
# Experiment: holdup assay
# Set-up: key: below the threshold = too weak to quantify, mostly under pKd 3.1 to 4
# Conditions: plain residues with an end cap or a label only (N-terminal biotin on a linker: ado-ado)
row,pKd,Binder
1,below the threshold,B1
2,below the threshold,B2
3,3.74,B3

# Molecular target: T3, GRIP1_4, Q9Y3R0
# Experiment: holdup assay
# Set-up: key: below the threshold = too weak to quantify, mostly under pKd 3.1 to 4
# Conditions: plain residues with an end cap or a label only (N-terminal biotin on a linker: ado-ado)
row,pKd,Binder
1,below the threshold,B1
2,below the threshold,B2
3,below the threshold,B3

# Molecular target: Inadl_4, Q8NI35
# Sequence (Q8NI35 547-651): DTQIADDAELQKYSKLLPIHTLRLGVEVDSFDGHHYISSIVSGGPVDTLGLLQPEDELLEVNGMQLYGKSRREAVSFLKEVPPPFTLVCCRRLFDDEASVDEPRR
# Experiment: holdup assay
# Set-up: key: below the threshold = too weak to quantify, mostly under pKd 3.1 to 4
# Conditions: plain residues with an end cap or a label only (N-terminal biotin on a linker: ado-ado)
row,pKd,Binder
1,below the threshold,B1
2,below the threshold,B2
3,below the threshold,B3

# Molecular target: T4, PDZD2_2, O15018
# Experiment: holdup assay
# Set-up: key: below the threshold = too weak to quantify, mostly under pKd 3.1 to 4
# Conditions: plain residues with an end cap or a label only (N-terminal biotin on a linker: ado-ado)
row,pKd,Binder
1,4.54,B1
2,3.52,B2
3,4.76,B3

# Molecular target: MAGI3_2, Q5TCQ9
# Sequence (Q5TCQ9 398-503): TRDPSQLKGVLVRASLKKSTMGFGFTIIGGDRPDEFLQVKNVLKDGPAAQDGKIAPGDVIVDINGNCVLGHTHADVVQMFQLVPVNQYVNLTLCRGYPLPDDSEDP
# Experiment: holdup assay
# Set-up: key: below the threshold = too weak to quantify, mostly under pKd 3.1 to 4
# Conditions: plain residues with an end cap or a label only (N-terminal biotin on a linker: ado-ado)
row,pKd,Binder
1,4.06,B1
2,3.51,B2
3,4.72,B3

# Molecular target: T5, DLG3_2, Q92796
# Experiment: holdup assay
# Set-up: key: below the threshold = too weak to quantify, mostly under pKd 3.1 to 4
# Conditions: plain residues with an end cap or a label only (N-terminal biotin on a linker: ado-ado)
row,pKd,Binder
1,3.91,B1
2,below the threshold,B2
3,4.61,B3

# Molecular target: PDLIM1, O00151
# Sequence (O00151 1-87): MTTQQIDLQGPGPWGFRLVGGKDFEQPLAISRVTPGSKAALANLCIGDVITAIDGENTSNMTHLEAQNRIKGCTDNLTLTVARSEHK
# Experiment: holdup assay
# Set-up: key: below the threshold = too weak to quantify, mostly under pKd 3.1 to 4
# Conditions: plain residues with an end cap or a label only (N-terminal biotin on a linker: ado-ado)
row,pKd,Binder
1,below the threshold,B1
2,below the threshold,B2
3,below the threshold,B3

# Molecular target: MAGI2_2, Q86UL8
# Sequence (Q86UL8 410-522): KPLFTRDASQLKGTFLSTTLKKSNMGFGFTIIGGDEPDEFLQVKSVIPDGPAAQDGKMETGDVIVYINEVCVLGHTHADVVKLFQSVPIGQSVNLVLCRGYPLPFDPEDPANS
# Experiment: holdup assay
# Set-up: key: below the threshold = too weak to quantify, mostly under pKd 3.1 to 4
# Conditions: plain residues with an end cap or a label only (N-terminal biotin on a linker: ado-ado)
row,pKd,Binder
1,3.78,B1
2,below the threshold,B2
3,4.55,B3

# Molecular target: IL16_1, Q14005
# Sequence (Q14005 210-306): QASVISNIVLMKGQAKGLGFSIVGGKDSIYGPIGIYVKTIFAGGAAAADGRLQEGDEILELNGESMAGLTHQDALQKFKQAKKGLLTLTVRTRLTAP
# Experiment: holdup assay
# Set-up: key: below the threshold = too weak to quantify, mostly under pKd 3.1 to 4
# Conditions: plain residues with an end cap or a label only (N-terminal biotin on a linker: ado-ado)
row,pKd,Binder
1,below the threshold,B1
2,below the threshold,B2
3,below the threshold,B3

# Molecular target: T6, MPDZ_10, O75970
# Experiment: holdup assay
# Set-up: key: below the threshold = too weak to quantify, mostly under pKd 3.1 to 4
# Conditions: plain residues with an end cap or a label only (N-terminal biotin on a linker: ado-ado)
row,pKd,Binder
1,below the threshold,B1
2,below the threshold,B2
3,3.98,B3

# Molecular target: GRIP2_6, Q9C0E4
# Sequence (Q9C0E4 648-740): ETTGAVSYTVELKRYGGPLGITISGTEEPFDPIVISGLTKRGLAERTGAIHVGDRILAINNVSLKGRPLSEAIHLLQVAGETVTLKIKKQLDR
# Experiment: holdup assay
# Set-up: key: below the threshold = too weak to quantify, mostly under pKd 3.1 to 4
# Conditions: plain residues with an end cap or a label only (N-terminal biotin on a linker: ado-ado)
row,pKd,Binder
1,3.57,B1
2,below the threshold,B2
3,3.52,B3

# Molecular target: T7, DFNB31_3, Q9P202
# Experiment: holdup assay
# Set-up: key: below the threshold = too weak to quantify, mostly under pKd 3.1 to 4
# Conditions: plain residues with an end cap or a label only (N-terminal biotin on a linker: ado-ado)
row,pKd,Binder
1,3.52,B1
2,below the threshold,B2
3,below the threshold,B3

# Molecular target: T8, PDZRN3_1, Q9UPQ7
# Experiment: holdup assay
# Set-up: key: below the threshold = too weak to quantify, mostly under pKd 3.1 to 4
# Conditions: plain residues with an end cap or a label only (N-terminal biotin on a linker: ado-ado)
row,pKd,Binder
1,below the threshold,B1
2,3.48,B2
3,4.12,B3

# Molecular target: T9, ARHGAP21, Q5T5U3
# Experiment: holdup assay
# Set-up: key: below the threshold = too weak to quantify, mostly under pKd 3.1 to 4
# Conditions: plain residues with an end cap or a label only (N-terminal biotin on a linker: ado-ado)
row,pKd,Binder
1,below the threshold,B1
2,3.93,B2
3,3.75,B3

# Molecular target: T10, MPDZ_5, O75970
# Experiment: holdup assay
# Set-up: key: below the threshold = too weak to quantify, mostly under pKd 3.1 to 4
# Conditions: plain residues with an end cap or a label only (N-terminal biotin on a linker: ado-ado)
row,pKd,Binder
1,below the threshold,B1
2,below the threshold,B2
3,below the threshold,B3

# Molecular target: T11, MPDZ_12, O75970
# Experiment: holdup assay
# Set-up: key: below the threshold = too weak to quantify, mostly under pKd 3.1 to 4
# Conditions: plain residues with an end cap or a label only (N-terminal biotin on a linker: ado-ado)
row,pKd,Binder
1,below the threshold,B1
2,below the threshold,B2
3,below the threshold,B3

# Molecular target: T12, SNTA1, Q13424
# Experiment: holdup assay
# Set-up: key: below the threshold = too weak to quantify, mostly under pKd 3.1 to 4
# Conditions: plain residues with an end cap or a label only (N-terminal biotin on a linker: ado-ado)
row,pKd,Binder
1,below the threshold,B1
2,3.73,B2
3,4.74,B3

# Molecular target: T13, TX1BP3, O14907
# Experiment: holdup assay
# Set-up: key: below the threshold = too weak to quantify, mostly under pKd 3.1 to 4
# Conditions: plain residues with an end cap or a label only (N-terminal biotin on a linker: ado-ado)
row,pKd,Binder
1,below the threshold,B1
2,below the threshold,B2
3,5.4,B3

# Molecular target: LIMK2, P53671
# Sequence (P53671 143-248): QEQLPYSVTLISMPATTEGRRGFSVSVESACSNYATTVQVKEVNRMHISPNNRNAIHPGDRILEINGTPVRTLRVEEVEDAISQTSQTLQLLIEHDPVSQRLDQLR
# Experiment: holdup assay
# Set-up: key: below the threshold = too weak to quantify, mostly under pKd 3.1 to 4
# Conditions: plain residues with an end cap or a label only (N-terminal biotin on a linker: ado-ado)
row,pKd,Binder
1,below the threshold,B1
2,below the threshold,B2
3,below the threshold,B3

# Molecular target: FRMPD3, Q5JV73
# Sequence (Q5JV73 12-100): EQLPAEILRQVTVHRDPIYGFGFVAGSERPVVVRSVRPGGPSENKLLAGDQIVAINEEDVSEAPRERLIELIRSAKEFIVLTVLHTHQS
# Experiment: holdup assay
# Set-up: key: below the threshold = too weak to quantify, mostly under pKd 3.1 to 4
# Conditions: plain residues with an end cap or a label only (N-terminal biotin on a linker: ado-ado)
row,pKd,Binder
1,below the threshold,B1
2,below the threshold,B2
3,below the threshold,B3

# Molecular target: TJP1_2, Q07157
# Sequence (Q07157 181-274): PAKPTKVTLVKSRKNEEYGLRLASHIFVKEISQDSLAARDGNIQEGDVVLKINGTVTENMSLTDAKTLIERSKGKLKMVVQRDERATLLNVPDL
# Experiment: holdup assay
# Set-up: key: below the threshold = too weak to quantify, mostly under pKd 3.1 to 4
# Conditions: plain residues with an end cap or a label only (N-terminal biotin on a linker: ado-ado)
row,pKd,Binder
1,3.5,B1
2,below the threshold,B2
3,below the threshold,B3
